# From patent publication US20260217814 (published 2026)
# T1: human IL-17A (human)
# T1 chain: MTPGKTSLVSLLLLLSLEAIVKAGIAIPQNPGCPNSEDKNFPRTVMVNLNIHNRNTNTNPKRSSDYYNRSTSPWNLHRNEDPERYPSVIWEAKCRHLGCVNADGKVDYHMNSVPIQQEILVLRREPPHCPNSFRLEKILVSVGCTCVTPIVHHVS
# T2: IL-17B (human)
# T2 chain: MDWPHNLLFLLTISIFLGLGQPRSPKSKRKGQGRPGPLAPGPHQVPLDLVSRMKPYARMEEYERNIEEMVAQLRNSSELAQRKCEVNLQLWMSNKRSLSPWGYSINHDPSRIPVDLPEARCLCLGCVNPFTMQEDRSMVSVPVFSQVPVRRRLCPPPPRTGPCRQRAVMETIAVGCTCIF
# T3: IL-17C (human)
# T3 chain: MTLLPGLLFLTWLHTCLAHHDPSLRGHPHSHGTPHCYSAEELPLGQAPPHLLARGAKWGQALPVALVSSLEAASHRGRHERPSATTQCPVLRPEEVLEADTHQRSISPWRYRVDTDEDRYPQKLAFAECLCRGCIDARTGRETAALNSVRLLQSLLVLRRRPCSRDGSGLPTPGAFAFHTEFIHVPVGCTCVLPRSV
# T4: cynomolgus IL-17A (cynomolgus)
# T4 chain: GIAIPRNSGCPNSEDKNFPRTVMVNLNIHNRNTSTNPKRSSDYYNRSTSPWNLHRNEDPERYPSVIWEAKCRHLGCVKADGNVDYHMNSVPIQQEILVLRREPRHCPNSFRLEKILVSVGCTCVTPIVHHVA
# T5: IL-17F (human)
# T5 chain: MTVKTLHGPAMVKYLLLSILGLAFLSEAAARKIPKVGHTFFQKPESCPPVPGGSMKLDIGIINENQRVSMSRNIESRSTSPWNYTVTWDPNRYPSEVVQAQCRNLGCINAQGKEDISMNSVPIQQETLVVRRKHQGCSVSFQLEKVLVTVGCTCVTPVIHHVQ
# T6: IL-17D (human)
# T6 chain: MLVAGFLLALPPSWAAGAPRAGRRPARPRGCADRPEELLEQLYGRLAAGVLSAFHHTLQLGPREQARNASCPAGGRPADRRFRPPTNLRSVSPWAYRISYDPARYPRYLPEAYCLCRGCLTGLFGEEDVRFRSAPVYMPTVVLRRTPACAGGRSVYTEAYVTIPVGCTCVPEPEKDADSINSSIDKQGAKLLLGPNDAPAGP
# T7: IL-17E (human)
# T7 chain: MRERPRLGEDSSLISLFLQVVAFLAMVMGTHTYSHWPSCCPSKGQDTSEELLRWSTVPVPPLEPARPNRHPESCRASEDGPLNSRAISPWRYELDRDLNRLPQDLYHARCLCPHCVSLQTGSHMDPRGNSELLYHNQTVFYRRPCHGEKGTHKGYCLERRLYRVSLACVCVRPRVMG
# B1: A4 IL-17A arm (antibody)
# chain 1: EVQLVESGGGLVQPGGSLRLSCAASGFSFSSDYWMCWVRQAPGKGLEWIGCIYAGDVDDTDYASWARGRFTISRDNSKNTVYLQMNSLRAEDTAVYYCARVDGFDITYFDLWGQGTLVTVSSASTKGPSVFPLAPSSKSTSGGTAALGCLVKDYFPEPVTVSWNSGALTSGVHTFPAVLQSSGLYSLSSVVTVPSSSLGTQTYICNVNHKPSNTKVDKKVEPKSCGGGGSGGGGSDIQMTQSPSSLSASVGDRVTITCQSSESVYSNNQLSWYQQKPGQPPKLLIYDASDLASGVPSRFSGSGSGTDFTLTISSLQPEDFATYYCAGGFSSSSDTAFGGGTKLTVLGGGGGSGGGGSGGGGSGGGGSEVQLVESGGGLVQPGGSLRLSCAASGFSLSSNAMGWVRQAPGKGLEYIGIISVGGFTYYASWAKGRFTISRDNSKNTVYLQMNSLRAEDTATYFCARDRHGGDSSGAFYLWGQGTLVTVSS
# chain 2: DIQMTQSPSSLSASVGDRVTITCQASQTINYWLAWYQQKPGKAPKLLIYRASTLASGVPSRFSGSGSGTDFTLTISSLQPEDFATYYCQNYYYSTSRSYGFGGGTKLTVLGRTRTVAAPSVFIFPPSDEQLKSGTASVVCLLNNFYPREAKVQWKVDNALQSGNSQESVTEQDSKDSTYSLSSTLTLSKADYEKHKVYACEVTHQGLSSPVTKSFNRGECGGGGSGGGGSDIQMTQSPSSLSASVGDRVTINCQASESISSWLAWYQQKPGKRPKLLIYKASTLASGVPSRFSGSGSGTDYTLTISSLQPEDFATYYCQGYYLDSSVDDNVFGGGTKLTVLGGGGGSGGGGSGGGGSGGGGSEVQLVESGGGLVQPGGSLRLSCAASGIDFSTYGISWVRQAPGKGLEWIAYIYPDYGITDYASWVNGRFTISLDNAQNTVYLQMNSLRAEDTAVYYCARSGSYYSRGWGAHYFNLWGQGTLVTVSS
# B2: A4 TNFa arm (antibody)
# chain 1: B1 chain 1
# chain 2: B1 chain 2
# B3: A4 HSA arm (antibody)
# chain 1: B1 chain 1
# chain 2: B1 chain 2
# B4: A5 TNFa arm (antibody)
# chain 1: EVQLVESGGGLVQPGGSLRLSCAASGIDFSTYGISWVRQAPGKGLEWIAYIYPDYGITDYASWVNGRFTISLDNAQNTVYLQMNSLRAEDTAVYYCARSGSYYSRGWGAHYFNLWGQGTLVTVSSASTKGPSVFPLAPSSKSTSGGTAALGCLVKDYFPEPVTVSWNSGALTSGVHTFPAVLQSSGLYSLSSVVTVPSSSLGTQTYICNVNHKPSNTKVDKKVEPKSCGGGGSGGGGSDIQMTQSPSSLSASVGDRVTITCQASQTINYWLAWYQQKPGKAPKLLIYRASTLASGVPSRFSGSGSGTDFTLTISSLQPEDFATYYCQNYYYSTSRSYGFGGGTKLTVLGGGGGSGGGGSGGGGSGGGGSEVQLVESGGGLVQPGGSLRLSCAASGFSFSSDYWMCWVRQAPGKGLEWIGCIYAGDVDDTDYASWARGRFTISRDNSKNTVYLQMNSLRAEDTAVYYCARVDGFDITYFDLWGQGTLVTVSS
# chain 2: DIQMTQSPSSLSASVGDRVTINCQASESISSWLAWYQQKPGKRPKLLIYKASTLASGVPSRFSGSGSGTDYTLTISSLQPEDFATYYCQGYYLDSSVDDNVFGGGTKLTVLGRTRTVAAPSVFIFPPSDEQLKSGTASVVCLLNNFYPREAKVQWKVDNALQSGNSQESVTEQDSKDSTYSLSSTLTLSKADYEKHKVYACEVTHQGLSSPVTKSFNRGECGGGGSGGGGSDIQMTQSPSSLSASVGDRVTITCQSSESVYSNNQLSWYQQKPGQPPKLLIYDASDLASGVPSRFSGSGSGTDFTLTISSLQPEDFATYYCAGGFSSSSDTAFGGGTKLTVLGGGGGSGGGGSGGGGSGGGGSEVQLVESGGGLVQPGGSLRLSCAASGFSLSSNAMGWVRQAPGKGLEYIGIISVGGFTYYASWAKGRFTISRDNSKNTVYLQMNSLRAEDTATYFCARDRHGGDSSGAFYLWGQGTLVTVSS
# B5: A3 HSA arm (antibody)
# chain 1: EVQLVESGGGLVQPGGSLRLSCAASGFSLSSNAMGWVRQAPGKGLEYIGIISVGGFTYYASWAKGRFTISRDNSKNTVYLQMNSLRAEDTATYFCARDRHGGDSSGAFYLWGQGTLVTVSSASTKGPSVFPLAPSSKSTSGGTAALGCLVKDYFPEPVTVSWNSGALTSGVHTFPAVLQSSGLYSLSSVVTVPSSSLGTQTYICNVNHKPSNTKVDKKVEPKSCGGGGSGGGGSDIQMTQSPSSLSASVGDRVTITCQASQTINYWLAWYQQKPGKAPKLLIYRASTLASGVPSRFSGSGSGTDFTLTISSLQPEDFATYYCQNYYYSTSRSYGFGGGTKLTVLGGGGGSGGGGSGGGGSGGGGSEVQLVESGGGLVQPGGSLRLSCAASGFSFSSDYWMCWVRQAPGKGLEWIGCIYAGDVDDTDYASWARGRFTISRDNSKNTVYLQMNSLRAEDTAVYYCARVDGFDITYFDLWGQGTLVTVSS
# chain 2: DIQMTQSPSSLSASVGDRVTITCQSSESVYSNNQLSWYQQKPGQPPKLLIYDASDLASGVPSRFSGSGSGTDFTLTISSLQPEDFATYYCAGGFSSSSDTAFGGGTKLTVLGRTRTVAAPSVFIFPPSDEQLKSGTASVVCLLNNFYPREAKVQWKVDNALQSGNSQESVTEQDSKDSTYSLSSTLTLSKADYEKHKVYACEVTHQGLSSPVTKSFNRGECGGGGSGGGGSDIQMTQSPSSLSASVGDRVTINCQASESISSWLAWYQQKPGKRPKLLIYKASTLASGVPSRFSGSGSGTDYTLTISSLQPEDFATYYCQGYYLDSSVDDNVFGGGTKLTVLGGGGGSGGGGSGGGGSGGGGSEVQLVESGGGLVQPGGSLRLSCAASGIDFSTYGISWVRQAPGKGLEWIAYIYPDYGITDYASWVNGRFTISLDNAQNTVYLQMNSLRAEDTAVYYCARSGSYYSRGWGAHYFNLWGQGTLVTVSS
# B6: A3 IL-17A arm (antibody)
# chain 1: B5 chain 1
# chain 2: B5 chain 2
# B7: A1 (27-07-G02-sc01) (antibody)
# chain: DIQMTQSPSSLSASVGDRVTITCQASQTINYWLAWYQQKPGKAPKLLIYRASTLASGVPSRFSGSGSGTDFTLTISSLQPEDFATYYCQNYYYSTSRSYGFGGGTKLTVLGGGGGSGGGGSGGGGSGGGGSEVQLVESGGGLVQPGGSLRLSCAASGFSFSSDYWMCWVRQAPGKGLEWIGCIYAGDVDDTDYASWARGRFTISRDNSKNTVYLQMNSLRAEDTAVYYCARVDGFDITYFDLWGQGTLVTVSS
# How the values were obtained:
# human IL-17A [1] = molecular target: T1, human IL-17A; assay: SPR
# human TNFa = human TNFa (human); assay: SPR
# human serum albumin [2] = molecular target: T8, human serum albumin (human, UniProt P02768); assay: SPR, pH 5.5
# human serum albumin [3] = molecular target: T8, human serum albumin; assay: SPR, pH 7.4
# IL-17B = molecular target: T2, IL-17B; assay: competition ELISA
# IL-17C = molecular target: T3, IL-17C; assay: competition ELISA
# cynomolgus IL-17A = molecular target: T4, cynomolgus IL-17A; assay: SPR
# IL-17F = molecular target: T5, IL-17F; assay: competition ELISA
# IL-17D = molecular target: T6, IL-17D; assay: competition
# IL-17E = molecular target: T7, IL-17E; assay: competition ELISA
# human IL-17A [4] = molecular target: T1, human IL-17A; assay: SPR, direct setup
binder,measurement,setting,value
B1,Kd,human IL-17A [1],0.337 nM
B2,Kd,human TNFa,0.257 nM
B3,Kd,human serum albumin [2],1.67 nM
same,Kd,human serum albumin [3],4.79 nM
B4,Kd,human TNFa,0.1 nM
B5,Kd,human serum albumin [2],0.947 nM
same,Kd,human serum albumin [3],1.37 nM
B6,Kd,human IL-17A [1],1.53 nM
B7,binding result,IL-17B,no binding
same,binding result,IL-17C,no binding
same,Kd,cynomolgus IL-17A,0.9 nM
same,binding result,IL-17F,no binding
same,binding result,IL-17D,no binding
same,binding result,IL-17E,no binding
same,Kd,human IL-17A [4],0.14 nM
